Reference: US20100092457A1 (Chugai, published 2010)

T1: full-length human DSG3 (Desmoglein 3) protein (human, UniProt P32926 50-999)
T1 construct: Full-length protein constantly expressed on transfected cells (DSG3-CHO, DSG3-A549, DSG3-Ba/F3); no signal peptide limits are stated; also called hDSG3; PV antigen
T1 sequence: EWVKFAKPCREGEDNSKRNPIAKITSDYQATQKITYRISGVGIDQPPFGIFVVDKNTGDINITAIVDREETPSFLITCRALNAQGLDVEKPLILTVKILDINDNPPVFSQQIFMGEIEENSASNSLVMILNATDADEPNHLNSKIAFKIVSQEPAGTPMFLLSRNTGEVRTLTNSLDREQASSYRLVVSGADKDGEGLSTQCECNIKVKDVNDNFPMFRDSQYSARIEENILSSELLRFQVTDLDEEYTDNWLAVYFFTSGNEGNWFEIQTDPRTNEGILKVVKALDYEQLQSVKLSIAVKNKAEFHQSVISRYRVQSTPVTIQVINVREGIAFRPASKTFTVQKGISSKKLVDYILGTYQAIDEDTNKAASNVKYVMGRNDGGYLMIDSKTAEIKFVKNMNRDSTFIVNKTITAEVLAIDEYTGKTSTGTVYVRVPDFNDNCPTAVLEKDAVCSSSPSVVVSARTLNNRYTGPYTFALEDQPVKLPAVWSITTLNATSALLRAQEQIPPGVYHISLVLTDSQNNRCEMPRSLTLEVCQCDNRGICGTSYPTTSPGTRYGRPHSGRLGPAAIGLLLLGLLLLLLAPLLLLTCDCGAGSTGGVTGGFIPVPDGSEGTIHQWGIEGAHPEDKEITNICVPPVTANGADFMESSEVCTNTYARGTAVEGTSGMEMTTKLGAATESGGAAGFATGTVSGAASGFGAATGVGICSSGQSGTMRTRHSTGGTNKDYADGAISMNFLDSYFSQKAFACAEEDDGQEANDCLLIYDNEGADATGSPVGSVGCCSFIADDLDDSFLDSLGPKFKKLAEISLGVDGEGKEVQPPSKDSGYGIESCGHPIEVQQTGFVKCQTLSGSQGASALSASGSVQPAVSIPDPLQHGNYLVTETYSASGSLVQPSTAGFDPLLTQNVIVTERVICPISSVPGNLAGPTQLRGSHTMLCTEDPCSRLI

B1: mouse IgG2a chimeric DF366 antibody (antibody)
heavy: EVQLQQSGPELVKPGASVKISCKASGYTFTDYNMDWVKQSHGESLEWIGYIYPNNGGSGYNQKFKSKATLTVDKSSSTAYMELHSLTSEDSAVYYCARRDSYYGFDMAWFAYWGQGTLVTVSAAKTTAPSVYPLAPVCGDTTGSSVTLGCLVKGYFPEPVTLTWNSGSLSSGVHTFPAVLQSDLYTLSSSVTVTSSTWPSQSITCNVAHPASSTKVDKKIEPRGPTIKPCPPCKCPAPNLLGGPSVFIFPPKIKDVLMISLSPIVTCVVVDVSEDDPDVQISWFVNNVEVHTAQTQTHREDYNSTLRVVSALPIQHQDWMSGKEFKCKVNNKDLPAPIERTISKPKGSVRAPQVYVLPPPEEEMTKKQVTLTCMVTDFMPEDIYVEWTNNGKTELNYKNTEPVLDSDGSYFMYSKLRVEKKNWVERNSYSCSVVHEGLHNHHTTKSFSRTPGK
light: DIQMTQSPASLSASVGETVTITCRPSENIYNNLAWYQQKQGKSPQLLVYVATNLAEGVPSRFSGSGSGTRFSLKINSLQPEDFGKYYCQHSYGTPWTFGGGTKLEIKRADAAPTVSIFPPSSEQLTSGGASVVCFLNNFYPKDINVKWKIDGSERQNGVLNSWTDQDSKDSTYSMSSTLTLTKDEYERHNSYTCEATHKTSTSPIVKSFNRNEC
notes: made in CHO DG44 cells; also called DF366m
B2: DF364 mouse-human chimeric antibody (antibody)
heavy: not shown
light: EIVLTQSPALMAASPGEKVTITCSVSSSISSSNLHWYQQKSGTSPKPWIYGTSNLASGVPVRFSGSGSGTSYSLTISTMEAEDAATYYCQQWSSYPLTFGAGTKLELKRTVAAPSVFIFPPSDEQLKSGTASVVCLLNNFYPREAKVQWKVDNALQSGNSQESVTEQDSKDSTYSLSSTLTLSKADYEKHKVYACEVTHQGLSSPVTKSFNRGEC
notes: made in CHO DG44 cells; also called DF364c
B3: low-fucose DF364 mouse-human chimeric antibody (antibody, human IgG1, kappa)
heavy: not shown
light: B2 light
modifications: low-fucose sugar chain (produced in YB2/0 cells)
notes: differs only in glycosylation (low fucose); also called YB-DF364c
B4: DF151 mouse-human chimeric antibody (antibody)
heavy: not shown
light: DIVLTQSPASLAVSLGQSVTISCRASESVEYYGTSLMQWYQQKPGQPPKLLIYGASDVESGVPARFSGSGSGTDFSLNIHPVEEDDIAMYFCQQSRKVPYTFGSGTKLEIKRTVAAPSVFIFPPSDEQLKSGTASVVCLLNNFYPREAKVQWKVDNALQSGNSQESVTEQDSKDSTYSLSSTLTLSKADYEKHKVYACEVTHQGLSSPVTKSFNRGEC
notes: made in CHO DG44 cells; also called DF151c
B5: low-fucose DF151 mouse-human chimeric antibody (antibody, human IgG1, kappa)
heavy: not shown
light: B4 light
modifications: low-fucose sugar chain (produced in YB2/0 cells)
notes: differs only in glycosylation (low fucose); also called YB-DF151c
B6: DF366 mouse-human chimeric antibody (antibody)
heavy: not shown
light: DIQMTQSPASLSASVGETVTITCRPSENIYNNLAWYQQKQGKSPQLLVYVATNLAEGVPSRFSGSGSGTRFSLKINSLQPEDFGKYYCQHSYGTPWTFGGGTKLEIKRTVAAPSVFIFPPSDEQLKSGTASVVCLLNNFYPREAKVQWKVDNALQSGNSQESVTEQDSKDSTYSLSSTLTLSKADYEKHKVYACEVTHQGLSSPVTKSFNRGEC
notes: made in CHO DG44 cells; also called DF366c
B7: low-fucose DF366 mouse-human chimeric antibody (antibody, human IgG1, kappa)
heavy: not shown
light: B6 light
modifications: low-fucose sugar chain (produced in YB2/0 cells)
notes: differs only in glycosylation (low fucose); also called YB-DF366c
B8: anti-DSG3 monoclonal antibody DF151 (antibody)
heavy: EVQLQQSGPELVKPGASVKISCKASGYSFTAYYMHWVKQSPEKCLEWIGQINPSTGGTTYNQKFKAKATLTVDKSSSTAYMQLKSLTSEDSAVYYCARWGDSWGQGTTLTVSSAKTTPPSVYPLAPGCGDTTGSSVTLGCLVKGYFPESVTVTWNSGSLSSSVHTFPALLQSGLYTMSSSVTVPSSTWPSQTVTCSVAHPASSTTVDKKLEPSGPISTINPCPPCKECHKCPAPNLEGGPSVFIFPPNIKDVLMISLTPKVTCVVVDVSEDDPDVQISWFVNNVEVHTAQTQTHREDYNSTIRVVSALPIQHQDWMSGKEFKCKVNNKDLPSPIERTISKIKGLVRAPQVYILPPPAEQLSRKDVSLTCLVVGFNPGDISVEWTSNGHTEENYKDTAPVLDSDGSYFIYSKLDIKTSKWEKTDSFSCNVRHEGLKNYYLKKTISRSPGK
light: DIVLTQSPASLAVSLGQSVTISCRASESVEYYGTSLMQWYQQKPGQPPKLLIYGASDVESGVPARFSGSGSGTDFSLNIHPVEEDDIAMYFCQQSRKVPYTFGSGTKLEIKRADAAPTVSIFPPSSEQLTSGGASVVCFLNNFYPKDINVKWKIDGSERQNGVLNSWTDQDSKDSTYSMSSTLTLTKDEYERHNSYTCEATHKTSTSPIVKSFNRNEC
notes: Mouse IgG2b kappa from hybridoma
B9: anti-DSG3 monoclonal antibody DF366 (antibody)
heavy: EVQLQQSGPELVKPGASVKISCKASGYTFTDYNMDWVKQSHGESLEWIGYIYPNNGGSGYNQKFKSKATLTVDKSSSTAYMELHSLTSEDSAVYYCARRDSYYGFDMAWFAYWGQGTLVTVSAAKTTPPSVYPLAPGSAAQTNSMVTLGCLVKGYFPEPVTVTWNSGSLSSGVHTFPAVLQSDLYTLSSSVTVPSSTWPSQTVTCNVAHPASSTKVDKKIVPRDCGCKPCICTVPEVSSVFIFPPKPKDVLTITLTPKVTCVVVDISKDDPEVQFSWFVDDVEVHTAQTKPREEQFNSTFRSVSELPIMHQDWLNGKEFKCRVNSAAFPAPIEKTISKTKGRPKAPQVYTIPPPKEQMAKDKVSLTCMITDFFPEDITVEWQWNGQPAENYKNTQPIMDTDGSYFVYSKLNVQKSNWEAGNTFTCSVLHEGLHNHHTEKSLSHSPGK
light: B1 light
notes: Mouse IgG1 kappa from hybridoma
B10: anti-DSG3 monoclonal antibody DF364 (antibody)
heavy: EVQLQQSGTVLARPGASVKMSCKASGYTFASYWIHWVKQRPGQGLEWIGSIYPGNSDTTYNQKFKGKAKLTVVTSASSAYMELSSLTNEDSAVYYCTEPTYYSYDDYYAMDYWGQGTSVTVSSAKTTPPSVYPLAPGSAAQTNSMVTLGCLVKGYFPEPVTVTWNSGSLSSGVHTFPAVLQSDLYTLSSSVTVPSSTWPSQTVTCNVAHPASSTKVDKKIVPRDCGCKPCICTVPEVSSVFIFPPKPKDVLTITLTPKVTCVVVDISKDDPEVQFSWFVDDVEVHTAQTKPREEQFNSTFRSVSELPIMHQDWLNGKEFKCRVNSAAFPAPIEKTISKTKGRPKAPQVYTIPPPKEQMAKDKVSLTCMITDFFPEDITVEWQWNGQPAENYKNTQPIMDTDGSYFVYSKLNVQKSNWEAGNTFTCSVLHEGLHNHHTEKSLSHSPGK
light: EIVLTQSPALMAASPGEKVTITCSVSSSISSSNLHWYQQKSGTSPKPWIYGTSNLASGVPVRFSGSGSGTSYSLTISTMEAEDAATYYCQQWSSYPLTFGAGTKLELKRADAAPTVSIFPPSSEQLTSGGASVVCFLNNFYPKDINVKWKIDGSERQNGVLNSWTDQDSKDSTYSMSSTLTLTKDEYERHNSYTCEATHKTSTSPIVKSFNRNEC
notes: as for B9

Biological target: T1, full-length human DSG3 (Desmoglein 3) …
Test: flow cytometry

Row | binding result | Binder
1 | binds | B1
2 | binds | B2
3 | binds | B3
4 | binds | B4
5 | binds | B5
6 | binds | B6
7 | binds | B7

Biological target: T1, full-length human DSG3 (Desmoglein 3) …
Test: hybridoma screening by flow cytometry on CHO cells expressing full-length human DSG3
Description: Next, RPMI1640 medium (Invitrogen) was added carefully to dilute PEG 1500, and then PEG 1500 was removed by centrifuging and removing the supernatant. The group of fused cells suspended in RPMI1640 containing 10% FBS was seeded into a 96-well culture plate at 100 μL/well. The following day, RPMI1640 containing 10% FBS, 1×HAT media supplement (SIGMA), and 0.5×BM-Condimed H1 Hybridoma cloning supplement (Roche Diagnostics) (hereinafter referred to as HAT medium) was added at 100 μL/well. On the second or third day, half of the culture solution was replaced with HAT medium, and the culture supernatant from the seventh day was used in the screening in which binding activity to the DSG3 molecule was used as an indicator. The screening was performed by flow cytometric analysis which detects binding to CHO cells that show constant expression of full-length human DSG3. Positive clones obtained by this analysis were monocloned by the limiting dilution method. Specifically, DF120, DF122, DF148, DF151, DF153, DF168, DF331, DF364, and DF366 were established as antibodies that specifically bind to DSG3.
Flow cytometry was used to evaluate the binding of the obtained antibodies to CHO cells that show constant expression of full-length human DSG3. The cells were suspended in FACS Buffer (1% FBS/PBS) at 5×10⁵ cells/mL and dispensed into Multiscreen-HV Filter Plates (Millipore), and the supernatant was removed from this cell suspension solution by centrifugation. After adding to the supernatant-free cells an FACS buffer containing anti-DSG3 monoclonal antibodies which have been diluted to a suitable concentration (3 μg/mL) in the FACS buffer, this was left to stand for 30 minutes on ice to let the cells react with the monoclonal antibodies. After removing the supernatant from this reaction solution by centrifugation, the cells were washed once with FACS buffer. Next, by suspending the cells in a FACS buffer containing FITC-labeled anti-mouse IgG antibody as the secondary antibody, the cells were reacted with the secondary antibody for 30 minutes on ice. […]

Row | binding result | Binder
8 | binds | B8
9 | binds | B9
10 | binds | B10
